The record followed here is patent US20160200831A1 (Sanofi, published 2016).

Experiment [1] concerns the target T1, glycosylated human PAI-1 (active form) (human, UniProt P05121 24-402, glycosylated). In words: cell-based or functional assay.
Experiment [2] has as its target T2, human PAI-1 (human, UniProt P05121 24-402). In words: cell-based or functional assay.
The target in experiment [3] is T3, cynomolgus PAI-1 (cynomolgus monkey (Macaca fascicularis), UniProt P05121 24-402 (human entry)). In words: cell-based or functional assay.
Experiment [4] has as its target T4, cyno PAI-1 captured on immobilized human vitronectin (cynomolgus monkey; human, UniProt P04004 20-478, limits assumed).
T4 construct: non-covalent complex formed on the chip; also called cPAI-1/Vn
In words: Biacore, cPAI-1 on vitronectin chip, two state reaction model (ka1). (In SPR one partner is held on a chip, and binding of the other changes the refractive index at the surface.)

In experiment [5] the target is T2, human PAI-1. In words: cell-based or functional assay. This is another data set of the same source.
In experiment [6] the target is T2, human PAI-1. The experiment is described as follows: Biacore, mAb on anti-human IgG Fc chip, 1:1 model.
The target in experiment [7] is T1, glycosylated human PAI-1 (active form). In words: cell-based or functional assay. This is another data set of the same source.
Experiment [8] has as its target T4, cyno PAI-1 captured on immobilized …. In words: Biacore, cPAI-1 on vitronectin chip, two state reaction model (kd1).
Experiment [9] shares this target. The experiment is described as follows: Biacore, cPAI-1 on vitronectin chip, two state reaction model.
The target of experiment [10] is T3, cynomolgus PAI-1. The experiment is described as follows: Biacore, mAb on anti-human IgG Fc chip / cyno PAI-1, 1:1 model.
Experiment [11] deals with T1, glycosylated human PAI-1 (active form). In words: cell-based or functional assay. The source holds these as a separate data set.
Experiment [12] concerns the target T5, human PAI-1 captured on immobilized human vitronectin (human, UniProt P04004 20-478).
T5 construct: non-covalent complex formed on the chip or plate; also called PAI-1/Vn complex; Vn captured hPAI-1
In words: Biacore, hPAI-1 on vitronectin chip, 1:1 model.

Experiment [13] has as its target T5, human PAI-1 captured on immobilized …. In words: Biacore, hPAI-1 on vitronectin chip, two state reaction model (kd1).
The target is the same in experiment [14]. The experiment is described as follows: Biacore, hPAI-1 on vitronectin chip, two state reaction model.
The target is the same in experiment [15]. In words: Biacore, hPAI-1 on vitronectin chip, two state reaction model (ka1).

T4 sequence (chain, as listed by the source limits assumed, chain 1 of 2): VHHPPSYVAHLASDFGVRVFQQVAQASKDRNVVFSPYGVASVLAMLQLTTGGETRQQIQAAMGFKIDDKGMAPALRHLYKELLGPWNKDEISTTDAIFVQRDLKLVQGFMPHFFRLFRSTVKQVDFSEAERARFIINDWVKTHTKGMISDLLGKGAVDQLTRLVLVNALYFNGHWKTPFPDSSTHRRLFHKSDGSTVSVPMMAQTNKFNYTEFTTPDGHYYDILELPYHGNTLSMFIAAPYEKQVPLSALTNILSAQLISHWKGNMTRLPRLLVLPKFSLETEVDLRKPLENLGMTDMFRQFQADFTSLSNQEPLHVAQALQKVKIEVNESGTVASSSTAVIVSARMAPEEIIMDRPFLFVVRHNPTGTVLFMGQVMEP
T4 sequence (P04004 20-478 limits assumed, chain 2 of 2): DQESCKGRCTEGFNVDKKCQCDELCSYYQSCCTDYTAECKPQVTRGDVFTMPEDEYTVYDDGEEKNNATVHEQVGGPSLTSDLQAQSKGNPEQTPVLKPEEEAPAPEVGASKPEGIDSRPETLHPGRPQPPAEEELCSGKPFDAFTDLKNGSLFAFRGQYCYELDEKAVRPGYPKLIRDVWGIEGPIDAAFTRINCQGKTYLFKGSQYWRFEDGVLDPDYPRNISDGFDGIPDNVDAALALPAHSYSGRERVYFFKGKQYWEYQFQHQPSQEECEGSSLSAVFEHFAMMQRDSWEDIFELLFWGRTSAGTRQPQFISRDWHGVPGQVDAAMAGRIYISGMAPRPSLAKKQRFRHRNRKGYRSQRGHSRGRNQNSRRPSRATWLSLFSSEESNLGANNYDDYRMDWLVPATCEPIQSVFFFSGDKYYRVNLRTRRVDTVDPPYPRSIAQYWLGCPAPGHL
T1 sequence (P05121 24-402 limits assumed): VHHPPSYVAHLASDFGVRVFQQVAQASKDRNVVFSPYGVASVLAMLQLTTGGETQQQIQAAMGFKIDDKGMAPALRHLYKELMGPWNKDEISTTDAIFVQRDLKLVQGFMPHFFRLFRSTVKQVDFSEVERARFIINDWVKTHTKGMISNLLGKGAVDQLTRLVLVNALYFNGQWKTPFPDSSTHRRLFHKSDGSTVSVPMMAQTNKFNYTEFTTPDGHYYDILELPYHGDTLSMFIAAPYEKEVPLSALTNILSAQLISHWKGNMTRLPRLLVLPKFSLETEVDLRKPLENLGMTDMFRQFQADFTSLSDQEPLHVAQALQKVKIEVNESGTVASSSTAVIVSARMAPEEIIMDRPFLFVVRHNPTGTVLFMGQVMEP
T5 sequence (chain, as listed by the source limits assumed, chain 1 of 2): as the sequence (P05121 24-402 limits assumed) above
T5 sequence (P04004 20-478 limits assumed, chain 2 of 2): as the sequence (P04004 20-478 limits assumed, chain 2 of 2) above
T2 sequence (P05121 24-402 limits assumed): as the sequence (P05121 24-402 limits assumed) above

B1: A44-hv11 (antibody, V domains shown)
VH: QMTLKESGPTLVKPTQTLSLTCSVSGDSMTNGYWNWIRQFPGKALEYMGYITYSGSTYYNPSLKGRITITRDTSKNQYYLTLSSVTTVDTATYYCARWHYGSPYYFDYWGQGTTLTVSS
VL: DIKMTQSPSSLSASVGDRVTITCKASQDINSYLSWLQQKPGKSPKTLIYRAQRSVEGVPSRFSGSGSGQDYSLTISSLQPEDLGIYYCLQYDEFPPTFGGGTKLEIK
notes: humanized A44, HEK293; compared with a human IgG1 isotype control; constant regions as for A44-hv1; also called A44V11; A44v11
One may read the kon as the rate constant with which the complex forms. By Kd is commonly meant the free concentration of one partner at which half of the binding sites on the other are occupied at equilibrium, for simple one-to-one binding. Broadly, the koff is the first-order rate constant of dissociation. In the case of B1, in experiment [1], the “human plasma clot lysis, IC50” value amounted to 1.38 nM and the “human plasma clot lysis, Imax @ 100 nM” value is 113%. In addition, in [2], the “active PAI-1 by uPA-PAI-1 complex ELISA, hPAI-1 Standard, IC50” value was determined as 0.131 nM; the “active PAI-1 by uPA-PAI-1 complex ELISA, hPAI-1 Standard, Y50%” value came out at 50.8%; the “active PAI-1 by uPA-PAI-1 complex ELISA, hPlasma TH1782, IC50” value turned out to be 0.0157 nM; the “active PAI-1 by uPA-PAI-1 complex ELISA, hPlasma TH1782, Y50%” value came out at 37.5%. In experiment [3], the “active PAI-1 by uPA-PAI-1 complex ELISA, Cyno PAI-1, IC50” value came out at 0.0424 nM and the “active PAI-1 by uPA-PAI-1 complex ELISA, Cyno PAI-1, Y50%” value is 50.8%. The kon in experiment [4] worked out at 1.56e+06 M⁻¹ s⁻¹. Also, in experiment [5], the “PAI-1 activity in human liver lysate (UK-PAI complex ELISA), IC50, A44-hv11 (1 nM)” value was determined as 0.0365 nM; the “PAI-1 activity in human liver lysate (UK-PAI complex ELISA), IC50, A44-hv11 (2 nM)” value was determined as 0.0503 nM; the “PAI-1 activity in human liver lysate (UK-PAI complex ELISA), IC50, A44-hv11 (3 nM)” value came out at 0.0465 nM. Moreover, in [6], the Kd is 0.0425 nM, the koff came to 6.68e-05 s⁻¹ and the kon came to 1.57e+06 M⁻¹ s⁻¹. For the same molecule, the “human plasma clot lysis restoration, IC50” value in [7] came out at 2 nM. In [8], the koff came out at 0.0006 s⁻¹. The molecule also gave a Kd in [9] of 0.387 nM. In [10], this molecule returned a Kd of 0.03 nM, a koff of 5.6e-05 s⁻¹ and a kon of 1.87e+06 M⁻¹ s⁻¹. Besides, in experiment [11], the “Plasminogen Activation IC50” value worked out at 2.01 nM and the “Plasminogen Activation Y50%” value was found to be 85.8%. In [12], this molecule came in with a Kd of 0.0156 nM, a koff of 0.000122 s⁻¹ and a kon of 7.66e+06 M⁻¹ s⁻¹.

B2: A44-hv13 (antibody, V domains shown)
VH: QMQLQESGPGLVKPSETLSLTCTVSGDSMTNGYWNWIRQPPGKGLEYMGYITYSGSTYYNPSLKSRITISRDTSKNQYSLKLSSVTAADTAVYYCARWHYGSPYYFDYWGQGTLVTVSS
VL: DIKMTQSPSSLSASVGDRVTITCKASQDINSYLSWLQQKPGKSPKTLIYRAQRSVEGVPSRFSGSGSGQDYSLTISSLQPEDLGIYYCLQYDEFPPTFGGGTKLEIK
notes: humanized A44, HEK293; constant regions as for A44-hv1; also called LC2 x HC5b; variant 13
Turning to B2, in experiment [2], the “active PAI-1 by uPA-PAI-1 complex ELISA, hPAI-1 Standard, IC50” value came out at 0.166 nM; the “active PAI-1 by uPA-PAI-1 complex ELISA, hPAI-1 Standard, Y50%” value came out at 52.8%; the “active PAI-1 by uPA-PAI-1 complex ELISA, hPlasma TH1782, IC50” value worked out at 0.0311 nM; the “active PAI-1 by uPA-PAI-1 complex ELISA, hPlasma TH1782, Y50%” value came to 61.4%. For the same molecule, in experiment [3], the “active PAI-1 by uPA-PAI-1 complex ELISA, Cyno PAI-1, IC50” value came to 0.0281 nM and the “active PAI-1 by uPA-PAI-1 complex ELISA, Cyno PAI-1, Y50%” value worked out at 52.8%. The association rate constant (kon) in [4] was 2.12e+06 M⁻¹ s⁻¹. Also, in [6], binding was characterised by a dissociation constant (Kd) of 0.0164 nM, the koff worked out at 2.52e-05 s⁻¹ and the kon came out at 1.54e+06 M⁻¹ s⁻¹. In [13], this molecule came in with a koff of 0.000436 s⁻¹. For the same molecule, the Kd in experiment [14] was 0.179 nM. Also, the koff in [8] was determined as 0.000243 s⁻¹. In addition, the kon in [15] is 2.4e+06 M⁻¹ s⁻¹. In [9], binding was characterised by a dissociation constant (Kd) of 0.115 nM. In [10], this molecule showed a Kd of 0.027 nM, a koff of 5.08e-05 s⁻¹ and a kon of 1.89e+06 M⁻¹ s⁻¹. In experiment [11], the “Plasminogen Activation IC50” value was 1.82 nM and the “Plasminogen Activation Y50%” value worked out at 71.1%.
